This is an account of results in article PMC1868955, “Crystal Structure of the P Pilus Rod Subunit PapA” (PLoS Pathogens, 2007).

Series [1] concerns the molecule itself. In words: SEC; gel filtration of co-expressed PapDHis/PapA complexes immediately after purification; Superdex75 120 ml, 20 mM TrisHCl pH 7.5, 20 mM NaCl. (Size exclusion chromatography separates by hydrodynamic size, large species first.)
Series [2] concerns the molecule itself. The experiment in a line: negative-stain electron microscopy; PapD/PapA samples frozen and thawed five times at 150 μg/ml in 10–20 mM TrisHCl pH 7.6, 20–50 mM NaCl; used the same day or kept at 4 °C up to 40 d; 1% uranyl acetate.

B1: PapA G15N (natural protein)
chain: APTIPQGQGKVTFNNTVVDAPCSISQKSADQSIDFGQLSKSFLEAGGVSKPMDLDIELVNCDITAFKGGNGAKKGTVKLAFTGPIVNGHSDELDTNGGTGTAIVVQGAGKNVVFDGSEGDANTLKDGENVLHYTAVVKKSSAVGAAVTEGAFSAVANFNLTYQ
notes: source: E. coli C600, co-expressed with PapDHis
In the case of B1, the binding result in series [1] is reported as “binds”.

B2: PapA I4G (natural protein)
chain: APTGPQGQGKVTFNGTVVDAPCSISQKSADQSIDFGQLSKSFLEAGGVSKPMDLDIELVNCDITAFKGGNGAKKGTVKLAFTGPIVNGHSDELDTNGGTGTAIVVQGAGKNVVFDGSEGDANTLKDGENVLHYTAVVKKSSAVGAAVTEGAFSAVANFNLTYQ
notes: as for B1
As for B2, the binding result in series [2] is listed as “binds”.

B3: PapA I4G G15N (natural protein)
chain: APTGPQGQGKVTFNNTVVDAPCSISQKSADQSIDFGQLSKSFLEAGGVSKPMDLDIELVNCDITAFKGGNGAKKGTVKLAFTGPIVNGHSDELDTNGGTGTAIVVQGAGKNVVFDGSEGDANTLKDGENVLHYTAVVKKSSAVGAAVTEGAFSAVANFNLTYQ
notes: as for B1
As to B3, the binding result in series [1] is “binds”.

B4: PapA Ntd1 (residues 2 to 8 deleted) (natural protein)
chain: AGKVTFNGTVVDAPCSISQKSADQSIDFGQLSKSFLEAGGVSKPMDLDIELVNCDITAFKGGNGAKKGTVKLAFTGPIVNGHSDELDTNGGTGTAIVVQGAGKNVVFDGSEGDANTLKDGENVLHYTAVVKKSSAVGAAVTEGAFSAVANFNLTYQ
notes: also called Ntd1 (Δ2–8); source: E. coli C600, co-expressed with PapDHis
As for B4, the binding result in series [1] is “binds”.

B5: PapA Ntd1 G15N T101L (residues 2 to 8 deleted, G15N, T101L) (natural protein)
chain: AGKVTFNNTVVDAPCSISQKSADQSIDFGQLSKSFLEAGGVSKPMDLDIELVNCDITAFKGGNGAKKGTVKLAFTGPIVNGHSDELDTNGGTGLAIVVQGAGKNVVFDGSEGDANTLKDGENVLHYTAVVKKSSAVGAAVTEGAFSAVANFNLTYQ
notes: Two copies stand in the PapD/(PapA)2 complex: one donor-strand complemented by PapD (dscPapA), one donor-strand exchanged with the Nte of the first (dsePapA); also called dscPapA; dsePapA; source: E. coli C600, co-expressed with PapDHis
Regarding B5, the binding result in series [1] is on record as “binds”.
